Measured values taken from US20260092093A1 (TJ BIOPHARMA SHANGHAI, published 2026).

Legend:
Test in all cases: cell-based or functional assay
[1] = target: T1, hIL-18 receptor (hIL-18Rα and hIL-18Rβ) (human, UniProt Q13478 19-541; O95256 20-599)
T1 sequence (looked up) 1: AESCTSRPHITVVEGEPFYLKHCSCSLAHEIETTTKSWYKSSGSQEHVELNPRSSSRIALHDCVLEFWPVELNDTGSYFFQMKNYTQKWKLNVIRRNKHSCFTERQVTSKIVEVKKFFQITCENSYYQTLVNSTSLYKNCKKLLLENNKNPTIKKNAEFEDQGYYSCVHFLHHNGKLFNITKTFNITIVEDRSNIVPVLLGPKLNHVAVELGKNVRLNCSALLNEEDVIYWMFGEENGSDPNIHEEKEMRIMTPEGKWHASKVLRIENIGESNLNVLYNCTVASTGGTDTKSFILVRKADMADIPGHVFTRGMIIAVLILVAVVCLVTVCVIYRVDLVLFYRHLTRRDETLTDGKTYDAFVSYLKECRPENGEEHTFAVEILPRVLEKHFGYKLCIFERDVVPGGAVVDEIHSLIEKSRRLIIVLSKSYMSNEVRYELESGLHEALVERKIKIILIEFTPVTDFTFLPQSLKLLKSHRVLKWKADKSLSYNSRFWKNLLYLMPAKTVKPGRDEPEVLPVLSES
T1 sequence (looked up) 2: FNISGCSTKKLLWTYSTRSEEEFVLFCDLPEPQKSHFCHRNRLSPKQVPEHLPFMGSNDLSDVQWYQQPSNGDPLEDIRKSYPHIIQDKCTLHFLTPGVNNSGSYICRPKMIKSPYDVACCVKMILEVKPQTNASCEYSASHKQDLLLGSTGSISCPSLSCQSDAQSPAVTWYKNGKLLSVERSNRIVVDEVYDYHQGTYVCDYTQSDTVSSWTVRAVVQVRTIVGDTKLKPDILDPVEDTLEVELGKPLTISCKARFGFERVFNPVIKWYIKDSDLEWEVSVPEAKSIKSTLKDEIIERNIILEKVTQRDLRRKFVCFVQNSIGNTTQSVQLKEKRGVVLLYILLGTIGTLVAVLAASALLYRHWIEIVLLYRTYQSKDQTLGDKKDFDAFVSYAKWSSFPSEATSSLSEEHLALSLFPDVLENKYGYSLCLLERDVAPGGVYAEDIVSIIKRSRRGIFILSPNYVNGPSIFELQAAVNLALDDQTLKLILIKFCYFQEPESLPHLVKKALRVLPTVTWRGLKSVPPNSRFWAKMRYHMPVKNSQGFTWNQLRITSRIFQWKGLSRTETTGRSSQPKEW

hIL-18BP-hFc [2] = target: T2, hIL-18BP-hFc (human, UniProt O95998 31-194, limits assumed)
T2 sequence (looked up): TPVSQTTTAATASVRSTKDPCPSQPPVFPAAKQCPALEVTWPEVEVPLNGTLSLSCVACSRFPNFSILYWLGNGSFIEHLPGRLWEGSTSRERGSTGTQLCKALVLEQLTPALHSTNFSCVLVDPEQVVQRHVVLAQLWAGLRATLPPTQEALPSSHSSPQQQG

[3] = target: T1, hIL-18 receptor (hIL-18Rα and hIL-18Rβ); remark: listed apart in the source
hIL-18BP-hFc [4] = target: T2, hIL-18BP-hFc; remark: listed apart in the source

B1: IL-18 variant polypeptide M24 (ligand)
chain: YFPKLRSKLSVIRNLNDQVLFIDQGNRPLFEDMTDSDCRDNAPRTIFIISMYKYSTSRGMAVTISVKCEKISTLSCENKIISFKEMNPPDNIKDTKSDIIFFQRSVPGHDNKMQFESSSYEGYFLACEKERDLFKLILKKEDELGDRSIMFTVQNED
EC50 (nM), PBMC assay (hIFNγ release) [1]: 0.054 nM | EC50 (nM) in the Presence of 1 µg/mL hIL-18BP-hFc, PBMC assay (hIFNγ release) (hIL-18BP-hFc [2]): 0.08 nM | EC50 Fold Change (+BP/-BP), PBMC assay (hIFNγ release) (hIL-18BP-hFc [2]): 1.48 fold | EC50 (nM), hIL-18 reporter assay [3]: 0.99 nM | EC50 (nM) in the Presence of 1 µg/mL hIL-18BP-hFc, hIL-18 reporter assay (hIL-18BP-hFc [4]): 1.99 nM | EC50 Fold Change (+BP/-BP), hIL-18 reporter assay (hIL-18BP-hFc [4]): 2.01 fold
